Among the data in publication PMC5746218 are stoichiometry N (molecules of the subunit) values, retold here.

For the test, the target named is PitA (Haloferax volcanii) (Haloferax volcanii (endogenous in strain H26)). Description: SEC; Sephacryl S-300 gel filtration of purified PitA against standard proteins (thyroglobulin, ferritin, KatG, BSA, cytochrome c554, cytochrome c). On the technique in general: Size exclusion chromatography separates by hydrodynamic size, large species first.

PitA (Haloferax volcanii) (enzyme): the stoichiometry N (molecules of the subunit) was greater than 10.
